# Assay results reported in PMC3789764.
# Target: Ku70 (in Ku70/Ku80ΔC);Ku80ΔC (in Ku70/Ku80ΔC) (human;human, UniProt P12956;P13010 1-609;1-590, |)
# Experiment: EMSA
# Details: protein: recombinant;recombinant; tags: N-terminal Strep tag II;; copies: 1;1
# Ku70 (in Ku70/Ku80ΔC);Ku80ΔC (in Ku70/Ku80ΔC), sequence (P12956 whole entry, stated change not applied, chain 1 of 2): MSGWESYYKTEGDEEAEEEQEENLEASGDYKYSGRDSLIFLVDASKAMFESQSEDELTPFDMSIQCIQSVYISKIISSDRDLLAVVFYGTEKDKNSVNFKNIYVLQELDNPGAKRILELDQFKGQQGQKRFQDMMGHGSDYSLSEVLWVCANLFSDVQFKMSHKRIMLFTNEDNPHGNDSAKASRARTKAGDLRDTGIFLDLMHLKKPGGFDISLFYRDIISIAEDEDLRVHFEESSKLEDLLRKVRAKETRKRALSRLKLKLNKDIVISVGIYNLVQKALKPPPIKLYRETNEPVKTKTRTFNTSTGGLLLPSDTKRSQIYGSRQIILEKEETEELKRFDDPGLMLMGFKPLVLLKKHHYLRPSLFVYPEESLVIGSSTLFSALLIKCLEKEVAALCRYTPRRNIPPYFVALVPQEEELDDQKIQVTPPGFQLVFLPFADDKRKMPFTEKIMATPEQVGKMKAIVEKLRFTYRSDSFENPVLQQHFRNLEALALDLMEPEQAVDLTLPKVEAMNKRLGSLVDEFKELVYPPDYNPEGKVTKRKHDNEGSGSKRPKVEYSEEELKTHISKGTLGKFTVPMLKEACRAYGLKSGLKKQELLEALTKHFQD
# Ku70 (in Ku70/Ku80ΔC);Ku80ΔC (in Ku70/Ku80ΔC), sequence (P13010 1-590, stated change not applied, chain 2 of 2): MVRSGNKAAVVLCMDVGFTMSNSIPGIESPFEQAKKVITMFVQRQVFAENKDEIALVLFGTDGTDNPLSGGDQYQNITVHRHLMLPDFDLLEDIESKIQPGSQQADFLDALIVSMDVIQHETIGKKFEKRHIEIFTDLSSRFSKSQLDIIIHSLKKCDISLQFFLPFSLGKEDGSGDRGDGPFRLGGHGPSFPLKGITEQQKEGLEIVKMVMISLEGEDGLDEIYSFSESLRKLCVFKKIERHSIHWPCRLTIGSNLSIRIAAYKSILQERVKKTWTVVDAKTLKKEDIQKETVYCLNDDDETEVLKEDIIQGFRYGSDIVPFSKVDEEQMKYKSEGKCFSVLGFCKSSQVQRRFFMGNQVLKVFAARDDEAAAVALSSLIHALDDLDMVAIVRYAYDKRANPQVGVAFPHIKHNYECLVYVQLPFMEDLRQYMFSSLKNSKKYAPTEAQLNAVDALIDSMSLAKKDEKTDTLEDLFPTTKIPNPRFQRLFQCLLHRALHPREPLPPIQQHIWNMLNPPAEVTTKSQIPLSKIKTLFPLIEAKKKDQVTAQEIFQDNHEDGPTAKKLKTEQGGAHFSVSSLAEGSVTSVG
binder,measurement,value
Cy3 19-bp duplex (dsDNA) DNA 1: GAAAGCTATGGGCGCGGTT DNA 2: AACCGCGCCCATAGCTTTC,binding result,binds
